For this data set, the target named is PrP (prion protein) (UniProt P04156). The data set can be described thus: EMSA. As to conditions: PrP form and source not stated.

In turn, “GGGAGACAAGACUAGACGCUCAACUACGAACUCAUGACACAAGGAUGCAAUCUCAUCCCG [B-end (PrPSc binding region)]” registered a Kd of 0.0443 µM.

The values are drawn from patent US20140011209.
